How the values were obtained:
α4β1 integrin on cells = biological target: T1, α4β1 integrin on cells (human, UniProt P13612 34-1032); assay: Jurkat cell adhesion to VCAM-Ig, confirming the absence of binding to α4β1 cells in Example 3
T1 construct: whole, on cells; also called α4β1 on Jurkat cells; stably transfected α4β1 cells
Protocol: (§1) The plate was washed twice with PBS (200 μl/well), blocked with 1% BSA in PBS (200 μl/well) for 1 h at room temperature, and washed thrice with 200 μl/well of assay buffer (TBS, 2 mM Glucose, 0.1% BSA, 1 mM CaCl₂) and 1 mM MgCl₂, pH 7.4). Jurkat cells were removed from cell suspension and centrifuged at 1500 rpm for 5 mins. The pellet was resuspended in RPMI 1640, 1% BSA buffer and incubated with 2 μM fluorescent dye (BCECF, Molecular Probes, Eugene, Oreg.) in a 37° C. incubator for 30 min. The labeled cells were washed twice by centrifugation at 1100 rpm for 5 min and resuspended in assay buffer to 0.8×10⁶ cells/ml. To individual wells of the washed plate were added 50 μl of purified antibody and 50 μl of Jurkat cells labeled with BCECF, and the plate was incubated at room temperature in dark for 1 h. The plate was washed 3-4 times with assay buffer (200 μl/well), and the fluorescence due to adhered cells on the plate was recorded at 485 nm (Excitation) and 538 nm (Emission) wavelength. Percent binding was determined by comparing the fluorescence prior to the final wash step (i.e. total cells added) to that after washing (i.e. bound cells).
This includes examples for a pan-αv commercial antibody (L230), a pan-β1 commercial antibody (mAb13), a published α4-specific antibody (natalizumab), and the c8 small molecule compound previously published as αvβ1 specific (Reed N I et al, Sci Transl Med, 7(288): 288ra79 (2015)).

[1] = biological target: T2, mouse αvβ1 integrin on BLO-11 mouse skeletal muscle fibroblasts (mouse, UniProt P43406 31-1044; P09055 21-798); assay: flow cytometry on BLO-11 mouse skeletal muscle fibroblasts
T2 construct: whole, on cells; the cells carry other integrins as well; also called BLO-11 (murine fibroblast cells)
T2 sequence (P43406 31-1044, chain 1 of 2): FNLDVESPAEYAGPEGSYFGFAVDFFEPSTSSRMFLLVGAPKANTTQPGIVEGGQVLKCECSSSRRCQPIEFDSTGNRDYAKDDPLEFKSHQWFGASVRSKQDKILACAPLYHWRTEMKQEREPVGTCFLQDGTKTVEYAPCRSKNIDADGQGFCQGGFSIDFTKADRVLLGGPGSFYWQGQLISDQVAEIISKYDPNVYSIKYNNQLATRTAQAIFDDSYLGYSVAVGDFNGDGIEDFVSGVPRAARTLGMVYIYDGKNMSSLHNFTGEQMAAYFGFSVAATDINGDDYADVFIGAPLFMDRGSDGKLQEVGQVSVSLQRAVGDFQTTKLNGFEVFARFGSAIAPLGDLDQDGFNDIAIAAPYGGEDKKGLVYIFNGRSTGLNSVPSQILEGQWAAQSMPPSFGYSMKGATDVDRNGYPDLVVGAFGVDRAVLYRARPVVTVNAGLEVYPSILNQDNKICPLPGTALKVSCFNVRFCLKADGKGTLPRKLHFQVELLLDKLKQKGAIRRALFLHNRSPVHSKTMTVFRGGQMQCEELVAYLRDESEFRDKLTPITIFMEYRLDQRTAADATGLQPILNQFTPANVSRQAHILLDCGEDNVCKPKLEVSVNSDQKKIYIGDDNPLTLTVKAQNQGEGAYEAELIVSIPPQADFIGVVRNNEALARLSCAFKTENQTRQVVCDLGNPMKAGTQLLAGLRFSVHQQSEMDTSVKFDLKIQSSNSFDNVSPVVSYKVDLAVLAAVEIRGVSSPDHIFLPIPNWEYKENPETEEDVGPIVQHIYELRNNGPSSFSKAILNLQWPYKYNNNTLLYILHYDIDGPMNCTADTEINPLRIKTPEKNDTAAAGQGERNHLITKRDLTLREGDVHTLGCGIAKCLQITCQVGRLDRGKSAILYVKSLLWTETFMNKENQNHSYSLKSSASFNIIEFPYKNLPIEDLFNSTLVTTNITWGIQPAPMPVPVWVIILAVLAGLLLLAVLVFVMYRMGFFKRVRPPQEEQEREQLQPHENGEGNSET
T2 sequence (P09055 21-798, chain 2 of 2): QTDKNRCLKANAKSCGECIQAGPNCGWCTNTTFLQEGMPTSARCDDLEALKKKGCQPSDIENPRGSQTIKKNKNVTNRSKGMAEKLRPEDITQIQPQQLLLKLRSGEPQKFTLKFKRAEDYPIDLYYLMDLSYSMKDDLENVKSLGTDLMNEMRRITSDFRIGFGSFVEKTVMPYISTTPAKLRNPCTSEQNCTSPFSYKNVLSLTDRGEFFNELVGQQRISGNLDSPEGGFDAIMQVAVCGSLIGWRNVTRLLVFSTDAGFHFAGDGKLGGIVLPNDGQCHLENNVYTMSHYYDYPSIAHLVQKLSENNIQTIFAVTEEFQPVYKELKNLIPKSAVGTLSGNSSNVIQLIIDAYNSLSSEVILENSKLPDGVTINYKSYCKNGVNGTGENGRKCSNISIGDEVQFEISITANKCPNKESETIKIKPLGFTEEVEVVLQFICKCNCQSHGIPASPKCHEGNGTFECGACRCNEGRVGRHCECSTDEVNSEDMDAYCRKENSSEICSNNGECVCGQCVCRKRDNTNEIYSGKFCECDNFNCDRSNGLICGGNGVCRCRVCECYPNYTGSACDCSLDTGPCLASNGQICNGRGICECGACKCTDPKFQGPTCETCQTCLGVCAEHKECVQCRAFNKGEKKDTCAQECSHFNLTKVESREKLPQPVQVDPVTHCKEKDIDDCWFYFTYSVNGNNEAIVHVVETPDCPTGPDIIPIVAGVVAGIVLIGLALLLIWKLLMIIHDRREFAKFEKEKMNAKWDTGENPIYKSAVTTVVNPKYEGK
Protocol: MRC9 cells were obtained from Sigma (#85020202) and maintained in EMEM (ATCC, #30-2003) supplemented with 10% Fetal Bovine Serum (FBS from Gibco, #16000-077). BLO-11 cells were obtained from ATCC (#CCL-198) and maintained in DMEM (ATCC, #30-2002) supplemented with 10% FBS. Cells were harvested by incubating with cell dissociation buffer (Gibco, #13150-016) at 37° C. for 10 min and then washed with FACS buffer containing CaCl₂) and MgCl₂ (FACS⁺⁺ buffer; PBS+1% BSA+1 mM CaCl₂)+1 mM MgCl₂). All staining and wash steps were performed at 4° C. in FACS⁺⁺ buffer. In a 96 well U bottom plate, 0.75×10⁶ cells per well were plated and then spun down to remove supernatant. Cells were then resuspended in serially diluted primary antibody and incubated for 30 min. After incubation, cells were washed twice and then incubated with α-human IgG Alexa Fluor 647 (Invitrogen, #A21445) secondary antibody for another 30 min. Cells were then washed twice and fixed with 1% PFA diluted in PBS for 30 min, followed by a final wash. Fluorescence activated cell sorting (FACS) analysis was performed using a five-laser BD LSR-II flow cytometer (BD Biosciences, San Jose, Calif., USA), and data were analyzed using FlowJo software v9 (Treestar, Ashland, Oreg., USA) and transferred into analysis and graphic software including GraphPad Prism 7 (La Jolla, Calif., USA).

[2] = biological target: T3, human αvβ1 integrin on cells (human, UniProt P06756 31-1048; P05556 21-798); assay: inhibition of adhesion of BCECF-labelled αvβ1-transfected cells to plate-coated LAP
T3 construct: also called stably transfected human αvβ1 cells; αvβ1 on MRC9 human lung fibroblasts
T3 sequence (P06756 31-1048 limits assumed, chain 1 of 2): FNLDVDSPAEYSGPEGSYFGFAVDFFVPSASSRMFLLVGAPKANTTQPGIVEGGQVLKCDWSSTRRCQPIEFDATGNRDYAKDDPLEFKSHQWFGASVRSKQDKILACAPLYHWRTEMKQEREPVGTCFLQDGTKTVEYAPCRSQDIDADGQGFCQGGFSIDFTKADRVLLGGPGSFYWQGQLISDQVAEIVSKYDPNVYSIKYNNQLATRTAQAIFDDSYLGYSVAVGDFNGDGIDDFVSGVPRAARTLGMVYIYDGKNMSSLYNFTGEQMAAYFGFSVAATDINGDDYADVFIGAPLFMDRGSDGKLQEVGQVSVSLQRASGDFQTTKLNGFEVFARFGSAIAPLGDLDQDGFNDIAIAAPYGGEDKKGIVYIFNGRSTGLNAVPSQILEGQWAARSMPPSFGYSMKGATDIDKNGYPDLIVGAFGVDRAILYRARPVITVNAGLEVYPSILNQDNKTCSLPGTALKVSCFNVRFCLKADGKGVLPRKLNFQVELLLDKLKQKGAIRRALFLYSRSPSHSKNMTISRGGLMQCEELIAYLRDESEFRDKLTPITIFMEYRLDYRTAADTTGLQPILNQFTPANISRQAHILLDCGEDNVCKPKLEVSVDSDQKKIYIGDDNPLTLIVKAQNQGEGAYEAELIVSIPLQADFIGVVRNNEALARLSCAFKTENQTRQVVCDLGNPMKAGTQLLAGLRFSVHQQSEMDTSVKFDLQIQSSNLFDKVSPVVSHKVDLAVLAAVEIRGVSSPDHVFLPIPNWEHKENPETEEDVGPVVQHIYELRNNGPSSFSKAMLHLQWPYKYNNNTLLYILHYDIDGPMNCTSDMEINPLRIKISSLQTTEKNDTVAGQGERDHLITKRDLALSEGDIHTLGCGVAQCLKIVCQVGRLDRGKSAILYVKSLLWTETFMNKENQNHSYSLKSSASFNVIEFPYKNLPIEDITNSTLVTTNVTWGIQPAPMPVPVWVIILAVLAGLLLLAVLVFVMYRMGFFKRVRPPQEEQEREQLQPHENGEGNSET
T3 sequence (P05556 21-798 limits assumed, chain 2 of 2): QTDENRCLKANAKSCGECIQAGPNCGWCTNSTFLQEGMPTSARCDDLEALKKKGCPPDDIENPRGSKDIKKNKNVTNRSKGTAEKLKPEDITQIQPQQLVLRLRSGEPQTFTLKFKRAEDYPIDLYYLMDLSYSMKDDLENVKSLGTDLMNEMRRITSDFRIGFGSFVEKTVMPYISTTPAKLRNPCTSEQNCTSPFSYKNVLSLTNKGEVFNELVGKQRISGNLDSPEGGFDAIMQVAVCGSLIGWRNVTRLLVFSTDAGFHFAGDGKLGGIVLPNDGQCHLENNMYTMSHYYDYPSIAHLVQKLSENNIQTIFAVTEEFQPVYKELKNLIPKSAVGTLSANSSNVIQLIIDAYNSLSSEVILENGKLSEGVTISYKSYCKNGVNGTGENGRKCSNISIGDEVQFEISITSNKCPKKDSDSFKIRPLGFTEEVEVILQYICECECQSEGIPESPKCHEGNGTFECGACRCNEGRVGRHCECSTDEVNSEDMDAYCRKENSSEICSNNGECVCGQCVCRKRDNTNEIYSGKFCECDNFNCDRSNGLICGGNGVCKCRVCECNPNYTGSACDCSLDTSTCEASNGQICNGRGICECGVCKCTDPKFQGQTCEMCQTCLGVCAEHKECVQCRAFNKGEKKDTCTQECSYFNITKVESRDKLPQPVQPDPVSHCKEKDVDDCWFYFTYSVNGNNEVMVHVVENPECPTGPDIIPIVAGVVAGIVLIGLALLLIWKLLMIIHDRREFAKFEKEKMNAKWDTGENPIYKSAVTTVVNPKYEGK
Protocol: as §1, with “7.4). Stably transfected human αvβ1” for “7.4). Jurkat”, “at 1100” for “at 1500”, “of human αvβ1” for “of Jurkat”

[3] = biological target: T3, human αvβ1 integrin on cells; assay: flow cytometry on stably transfected cells, antibody titration (bivalent EC50)
Protocol: (§2) Cells were washed in the appropriate assay buffer three times by pelleting at 1500 RPM for 3 minutes and then pouring out supernatant. Assay buffer for this experiment was TBS containing 1 mg/mL BSA and supplemented with either 1 mM Ca+1 mM Mg or with 1 mM Mn. Cells were then resuspended in assay buffer at a concentration of 1.0-1.5×10⁶ cells/mL and transferred to wells of a 96-well assay plate (Corning 3799) in 50 μL aliquots. Plates were then centrifuged at 2000 RPM for 3 minutes to pellet cells and supernatant was flicked out. Cells were resuspended in 100 μL of antibody sample and incubated on ice for 45 to 60 minutes.
(§3) Plates were washed three times in 150 μL assay buffer by pelleting at 2000 RPM for 3 minutes and then flicking out the supernatant. Cells were then resuspended in 50 μL of phycoerythrin-conjugated goat anti-human Fab secondary reagent and incubated on ice in the dark for 30 minutes. Plates were washed three times in 150 μL assay buffer by pelleting at 2000 RPM for 3 minutes and then flicking out the supernatant. Cells were then resuspended in 200 μL of assay buffer+1% polyformaldehyde (PFA) for 30 minutes on ice to fix the cells. Cells were pelleted to remove the PFA and then resuspended in 150 μL assay buffer.

[4] = biological target: T4, αvβ8 integrin on stably transfected cells (human, UniProt P26012 43-769); assay: as above
T4 construct: whole, on cells
T4 sequence (chain, as listed by the source, chain 1 of 2): as the sequence (P06756 31-1048 limits assumed, chain 1 of 2) above
T4 sequence (P26012 43-769, chain 2 of 2): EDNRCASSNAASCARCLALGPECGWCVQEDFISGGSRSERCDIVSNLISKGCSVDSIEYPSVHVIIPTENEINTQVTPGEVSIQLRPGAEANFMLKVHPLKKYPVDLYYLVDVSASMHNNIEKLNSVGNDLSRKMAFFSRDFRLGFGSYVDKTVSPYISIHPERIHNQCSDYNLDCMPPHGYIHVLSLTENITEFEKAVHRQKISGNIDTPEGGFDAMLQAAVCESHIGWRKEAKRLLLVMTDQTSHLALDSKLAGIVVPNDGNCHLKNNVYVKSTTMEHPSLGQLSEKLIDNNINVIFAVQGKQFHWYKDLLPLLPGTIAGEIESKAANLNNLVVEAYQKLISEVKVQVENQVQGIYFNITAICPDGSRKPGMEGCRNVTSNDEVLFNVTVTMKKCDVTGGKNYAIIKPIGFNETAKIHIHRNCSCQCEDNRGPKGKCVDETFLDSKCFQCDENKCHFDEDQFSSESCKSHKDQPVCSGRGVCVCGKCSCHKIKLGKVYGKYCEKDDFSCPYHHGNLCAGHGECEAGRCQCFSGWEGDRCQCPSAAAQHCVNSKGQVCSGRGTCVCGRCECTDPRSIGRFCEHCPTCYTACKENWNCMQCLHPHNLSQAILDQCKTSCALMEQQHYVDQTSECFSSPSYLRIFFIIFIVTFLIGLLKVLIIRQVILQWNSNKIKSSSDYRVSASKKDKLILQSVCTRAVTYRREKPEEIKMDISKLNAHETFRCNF
Protocol: as §2, §3

[5] = biological target: T4, αvβ8 integrin on stably transfected …; assay: flow cytometry on stably transfected cells; weak binding observed but incomplete fit to calculate EC50
Protocol: as §2, §3

[6] = biological target: αvβ6 integrin on stably transfected cells (human, UniProt P06756 31-1048; P18564 22-788); assay: flow cytometry on stably transfected cells, antibody titration (bivalent EC50)
Protocol: as §2, §3

[7] = biological target: T5, αvβ3 integrin on stably transfected cells (human, UniProt P05106 27-788); assay: as above
T5 construct: whole, on cells
Protocol: as §2, §3

[8] = biological target: T6, αvβ5 integrin on stably transfected cells (human, UniProt P18084 24-799); assay: as above
T6 construct: whole, on cells
Protocol: as §2, §3

| Binder | binding result (α4β1 integrin on cells) | binding result [1] | IC50 [2] [nM] | EC50 [3] [nM] | other results |
| --- | --- | --- | --- | --- | --- |
| Exemplary Antibody 20 (antibody, V domains shown, expressed in yeast (Adimab platform) and purified on protein A; also called Ex. Ab 20) VH: QVQLVESGGGLVKPGGSLRLSCAASGFTFSDYYMSWIRQAPGKGLEWVSYISSSGSTIYYADSVKGRFTISRDNAKNSLYLQMNSLRAEDTAVYYCARGGPSRGDALAEYFQHWGQGTTVTVSS VL: EIVLTQSPATLSLSPGERATLSCRASQSVSRYLAWYQQKPGQAPRLLIYDASNRATGIPARFSGSGSGTDFTLTISSLEPEDFAVYYCQQLSLHPPYTFGGGTKVEIK | – | – | 1 | 0.4 | binding result [5]: binds |
| Exemplary Antibody 13 (antibody, V domains shown, expressed in yeast (Adimab platform) and purified on protein A; also called Ex. Ab 13) VH: QVQLVESGGGLVKPGGSLRLSCAASGFTFSDYYMSWIRQAPGKGLEWVSYISSSGSTIYYADSVKGRFTISRDNAKNSLYLQMNSLRAEDTAVYYCARGGPSRGDALAEYFQHWGQGTTVTVSS VL: EIVMTQSPATLSVSPGERATLSCRASQSVSSNLAWYQQKPGQAPRLLIYGASTRATGIPARFSGSGSGTEFTLTISSLQSEDFAVYYCQQLTNHPPIAFGGGTKVEIK | – | – | 1.3 | 0.6 | – |
| Exemplary Antibody 7 (antibody, V domains shown, expressed in yeast (Adimab platform) and purified on protein A; also called Ex. Ab 7) VH: QVQLVESGGGLVKPGGSLRLSCAASGFTFSDYYMSWIRQAPGKGLEWVSYISSSGSTIYYADSVKGRFTISRDNAKNSLYLQMNSLRAEDTAVYYCARGGPSRGDALAEYFQHWGQGTTVTVSS VL: EIVMTQSPATLSVSPGERATLSCRASQSVSSNLAWYQQKPGQAPRLLIYGASTRATGIPARFSGSGSGTEFTLTISSLQSEDFAVYYCQQLVNYPPITFGGGTKVEIK | – | – | 4.3 | 1.2 | – |
| Exemplary Antibody 18 (antibody, V domains shown, expressed in yeast (Adimab platform) and purified on protein A; also called Ex. Ab 18) VH: QVQLVQSGAEVKKPGASVKVSCKASGYTFRSFYMHWVRQAPGQGLEWMGVINPSLGSTGYAQKFQGRVTMTRDTSTSTVYMELSSLRSEDTAVYYCARETNYYRGGPAFDIWGQGTMVTVSS VL: not shown | – | – | – | 2 | EC50 [6]: 16 nM; EC50 [7]: 13 nM; EC50 [4]: 10 nM; EC50 [8]: 11 nM |
| Exemplary Antibody 14 (antibody, V domains shown, expressed in yeast (Adimab platform) and purified on protein A; also called Ex. Ab 14) VH: QVQLVESGGGLVKPGGSLRLSCAASGFTFSDYYMSWIRQAPGKGLEWVSYISSSGSTIYYADSVKGRFTISRDNAKNSLYLQMNSLRAEDTAVYYCARERGNRGDTPRYYYMDVWGKGTTVTVSS VL: DIQMTQSPSSLSASVGDRVTITCRASQSISRYLNWYQQKPGKAPKLLIYAASSLQSGVPSRFSGSGSGTDFTLTISSLQPEDFATYYCQQSLVTPFTFGGGTKVEIK | – | – | 2.2 | 0.8 | – |

The next lines start with results.

| binding result (α4β1 integrin on cells) | binding result [1] | IC50 [2] [nM] | EC50 [3] [nM] | Binder | other results |
| --- | --- | --- | --- | --- | --- |
| no binding | binds | 2.8 | 4.9 | Exemplary Antibody 4 (antibody, V domains shown, expressed in yeast (Adimab platform) and purified on protein A; also called Ex. Ab 4) VH: QVQLVESGGGLVQPGGSLRLSCAASGFTFTSYYMHWVRQAPGQGLEWMGIINPSGGSTSYAQKFQGRVTMTRDTSTSTVYMELSSLRSEDTAVYYCARQQRHRRDYDYYYGMDVWGQGTTVTVSS VL: EIVLTQSPGTLSLSPGERATLSCRASQSVSSDYLAWYQQKPGQAPRLLIYGASRRATGIPDRFSGSGSGTDFTLTISRLEPEDFAVYYCQQAYSLPPTFGGGTKVEIK | – |
| no binding | binds | 1.4 | 2.8 | Exemplary Antibody 19 (antibody, V domains shown, expressed in yeast (Adimab platform) and purified on protein A; also called Ex. Ab 19) VH: QVQLVESGGGVVQPGRSLRLSCAASGFTFSSYGMHWVRQAPGKGLEWVAVISYDGSNKYYADSVKGRFTISRDNSKNTLYLQMNSLRAEDTAVYYCARGGPTRGDGTRVYYYGMDVWGQGTTVTVSS VL: not shown | EC50 [4]: 2.8 nM |
| no binding | – | – | – | Exemplary Antibody 5 (antibody, V domains shown, expressed in yeast (Adimab platform) and purified on protein A; also called Ex. Ab 5) VH: EVQLVESGGGVVQPGRSLRLSCAASGFTFKYYGMHWVRQAPGKGLEWVASIWYDGSNKKYADSVKGRFTISRDNSKNTLYLQMNSLRAEDTAVYYCARGGPTRGDGTRVYYYGMDVWGQGTTVTVSS VL: EIVMTQSPATLSVSPGERATLSCRASQSVSSNLAWYQQKPGQAPRLLIYSASTRATGIPARFSGSGSGTEFTLTISSLQSEDFAVYYCQQYYHHPFTFGGGTKVEIK | – |
| – | – | 9 | 0.8 | Exemplary Antibody 6 (antibody, V domains shown, expressed in yeast (Adimab platform) and purified on protein A; also called Ex. Ab 6) VH: QVQLVESGGGLVKPGGSLRLSCAASGFTFSDYYMSWIRQAPGKGLEWVSYISSSGSTIYYADSVKGRFTISRDNAKNSLYLQMNSLRAEDTAVYYCARGGRNRGDSSLSGIDVWGQGTTVTVSS VL: DIQMTQSPSSLSASVGDRVTITCRASQSINSYLNWYQQKPGKAPKLLIYAASSLQSGVPSRFSGSGSGTDFTLTISSLQPEDFATYYCQQQYSDITFGGGTKVEIK | – |
| no binding | binds | < 1 | 1.4 | Exemplary Antibody 17 (antibody, V domains shown, expressed in yeast (Adimab platform) and purified on protein A; also called Ex. Ab 17) VH: EVQLVQSGAEVKKPGESLKISCKGSGYSFTSYWIGWVRQMPGKGLEWMGIIYPGDSDTRYSPSFQGQVTISADKSISTAYLQWSSLKASDTAMYYCARGPRSRGDGPSNYYYMDVWGQGTLVTVSS VL: DIQMTQSPSTLSASVGDRVTITCRASQSISSWLAWYQQKPGKAPKLLIYKASSLESGVPSRFSGSGSGTEFTLTISSLQPDDFATYYCQQYRPLPPTFGGGTKVEIK | EC50 [7]: 3.3 nM |
